Laboratory results: IntAct's records for PubMed 21505419

B1: Suppressor protein STP22 of temperature-sensitive alpha-factor receptor and arginine permease (Saccharomyces cerevisiae), P25604 (parent)
chain: MSANGKISVPEAVVNWLFKVIQPIYNDGRTTFHDSLALLDNFHSLRPRTRVFTHSDGTPQLLLSIYGTISTGEDGSSPHSIPVIMWVPSMYPVKPPFISINLENFDMNTISSSLPIQEYIDSNGWIALPILHCWDPAAMNLIMVVQELMSLLHEPPQDQAPSLPPKPNTQLQQEQNTPPLPPKPKSPHLKPPLPPPPPPQPASNALDLMDMDNTDISPTNHHEMLQNLQTVVNELYREDVDYVADKILTRQTVMQESIARFHEIIAIDKNHLRAVEQAIEQTMHSLNAQIDVLTANRAKVQQFSSTSHVDDEDVNSIAVAKTDGLNQLYNLVAQDYALTDTIECLSRMLHRGTIPLDTFVKQGRELARQQFLVRWHIQRITSPLS
partner: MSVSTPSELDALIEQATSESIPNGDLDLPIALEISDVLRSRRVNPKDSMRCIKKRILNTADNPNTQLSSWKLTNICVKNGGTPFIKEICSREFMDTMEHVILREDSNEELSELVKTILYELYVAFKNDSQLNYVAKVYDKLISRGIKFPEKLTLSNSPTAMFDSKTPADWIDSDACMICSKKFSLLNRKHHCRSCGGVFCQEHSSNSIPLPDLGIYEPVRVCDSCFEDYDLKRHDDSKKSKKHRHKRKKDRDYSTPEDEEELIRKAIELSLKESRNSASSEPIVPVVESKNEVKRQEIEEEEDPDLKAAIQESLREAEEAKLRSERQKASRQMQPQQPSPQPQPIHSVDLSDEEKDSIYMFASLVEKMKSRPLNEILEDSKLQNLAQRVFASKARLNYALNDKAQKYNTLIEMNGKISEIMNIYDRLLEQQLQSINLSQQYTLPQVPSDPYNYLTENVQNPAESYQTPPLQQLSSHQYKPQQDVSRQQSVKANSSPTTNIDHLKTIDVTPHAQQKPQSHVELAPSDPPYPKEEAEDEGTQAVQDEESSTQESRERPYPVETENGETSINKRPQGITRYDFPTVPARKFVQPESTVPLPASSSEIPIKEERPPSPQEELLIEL

Variants of: B1
Details: with vps27_yeast VPS27, P40343

Row | Variant | effect of a mutation on the interaction
1 | W16A | disrupting interaction

Variants of: B1
Details: with vps27_yeast VPS27, P40343
Remark: another data set of the same source

Row | Variant | effect of a mutation on the interaction
2 | L61N | decreasing interaction

Variants of: B1
Details: with vps27_yeast VPS27, P40343
Remark: another data set of the same source

Row | Variant | effect of a mutation on the interaction
3 | T49V | decreasing interaction
